The values that follow come from article PMC11997821.

Test [1] addresses BsaXI S subunit (476-residue specificity subunit of R.M.BsaXI) (Bacillus stearothermophilus). Put plainly: SEC; Superdex75 column in NEB Diluent B; pooled, separately expressed RM and S subunits after chitin, DEAE, heparin and Source columns. Background: In gel filtration, larger molecules generally elute earlier.
The target is the same in test [2]. The experiment in a line: single-particle EM, 2D classification of particles (negative stain and cryo-EM); DNA-free and DNA-bound BsaXI particles, twice selected.

Consider “BsaXI RM subunit (916-residue RM fusion subunit of the Type IIB restriction-modification enzyme R.M.BsaXI)”, for which the stoichiometry N (RM subunits per S subunit) in test [1] and in test [2] was 2 throughout.
